Measurements published in patent US8889408B2, “Factor taking part in transcription control” (Sony Corporation, priority 2002, dated 2014).

Assays:
MM-1-19-P cells = assay: ATRA-induced differentiation of MM-1-19-P rhabdomyosarcoma cells; type: cell-based, human
Source text: It is known that ATRA (all-trans retinoic acid) is an important inducer for tumor cell differentiation (20-22). The human rhabdomyosarcoma cell line MM-1-19-P is constituted mainly of small polygonal cells, which when provided with retinoic acid, ultimately differentiate into myotubular cytomegalic cells. In order to clarify the physiological role of HDART in the reaction ascribed to nuclear hormone receptors, the influence of the expression with HDART on the differentiation of MM-1-19-P caused by ATRA was analyzed.
MM-1-19-P cells were plated in a […] Petri dish, followed by co-transfection of the cells with 0.4 μg of pGFP vector and 2 μg of pcDNA3 (vacant vector) or pcDMA3-HDART (HDART expression vector). 24 hours after the transfection, the medium was changed with an ATRA-containing (2 μM) or ATRA-free fresh one. […] All experiments were repeated four times, and the number of cells assessed as positive for GFP was counted. It will be noted that in FIG. 12, the standard microphotographs of green fluorescence of GFP are shown in panels of FIGS. 12A, 12B, 12C and 12D, and the phase differential microphotographs are shown in panels of FIGS. 12E and 12F, respectively. In the figure, 12A indicates ATRA non-treated, vacant vector-introduced cells, 12B indicates ATRA treated, vacant vector-introduced cells, 12C indicates ATRA-non-treated, HDART expression vector-introduced cells, 12D indicates ATRA-treated, HDART expression vector-introduced cells, 12E indicates cells under the same conditions as in 12C above, and 12F indicates cells under the same conditions as in 12D above. In addition, the black arrow in the panel of FIG. 12F indicates undifferentiated GFP positive cells, and white arrow indicates differentiated cells.

retinoic acid receptor = assay: RAR reporter CAT analysis in HepG2 cells; type: cell-based
Protocol: Since it is shown in the above example that HDART is able to interact with Skip, the functional role of HDART on the transcription route ascribed to a nuclear receptor was analyzed. First, the effect of HDART on the transcription regulation by retinoic acid receptor was analyzed. For this purpose, the CAT analysis was made using a RAR (retinoid acid receptor) reporter plasmid incorporating a thymidine kinase minimum promoter (pTREpal-tata) and CAT gene therein downstream of a retinoid response element.
More particularly, pcDNA3-HDART, capable of steadily expressing HDART, and, at the same time, RAR reporter plasmid, were transfected into HepG2 cells by use of Effectene kit (QIAGEN™). It is to be noted that the pcDNA3-HDART expression vector was introduced in different amounts of 0, 0.5 and 1.0 μg, and the amount of DNA in the respective transfections was equalized at 1 μg by adding the appropriate amount of a vacant vector of pcDNA. After the transfection, growth was made in the presence (10^−8 M) or absence of ATRA and the CAT activity was measured. The results of the measurement (FIG. 6) are indicated in terms of values corrected on the basis of the CAT activity obtained after introduction of 1.0 μg of a vacant vector in the absence of ATRA. In addition, the average of the results of three experiments and a standard deviation in terms of an error bar are also shown.
(§1) Next, the influence of the overexpression of N4TPR on the transcription from RAR or a glucocorticoid responsive promoter was checked. It will be noted that this test was made in the same manner as in the reporter analysis set out in Example 4, but using GFP-N4TPR expression vector (0, 0.3 and 0.5 μg).

HDAC = assay: CAT reporter analysis with HDART in the presence of HDAC inhibitors; type: cell-based; details: pcDNA3-HDART 1 μg
Protocol: In this example, however, a given amount of pcDNA3-HDART expression vector (1 μg) (“HDART+” in FIGS. 10) and 100 nM of TSA or […] of sodium butyrate was added to along with a ligand (ATRA or dexamethasone).

[1] = test system: glucocorticoid receptor (GR); assay: GR reporter CAT analysis in GR positive Hela cells; type: cell-based
Protocol: Furthermore, the action of HDART on the transcription regulation by glucocorticoid receptor (GR) was analyzed by use of GR reporter plasmid in GR positive Hela cells. The transcription activity of a glucocorticoid response promoter was carried out in the same manner as in the experiment for the retinoic acid receptor except for the use of Hela cells and 10^−8 M of dexamethasone. The results of the measurement are shown in the same manner as shown above.
as §1

Skip [2] = target: T1, Skip (Homo sapiens, UniProt Q13573); assay: Yeast two-hybrid analysis (β-galactosidase) of HDART-Skip interaction; type: binding; set-up: expressed in transfected cells; host or cells: Saccharomyces cerevisiae Y190; details: Gal4DBD-HDART and deletion mutants with Gal4AD-Skip; β-galactosidase activity
T1 sequence (Q13573 1-536): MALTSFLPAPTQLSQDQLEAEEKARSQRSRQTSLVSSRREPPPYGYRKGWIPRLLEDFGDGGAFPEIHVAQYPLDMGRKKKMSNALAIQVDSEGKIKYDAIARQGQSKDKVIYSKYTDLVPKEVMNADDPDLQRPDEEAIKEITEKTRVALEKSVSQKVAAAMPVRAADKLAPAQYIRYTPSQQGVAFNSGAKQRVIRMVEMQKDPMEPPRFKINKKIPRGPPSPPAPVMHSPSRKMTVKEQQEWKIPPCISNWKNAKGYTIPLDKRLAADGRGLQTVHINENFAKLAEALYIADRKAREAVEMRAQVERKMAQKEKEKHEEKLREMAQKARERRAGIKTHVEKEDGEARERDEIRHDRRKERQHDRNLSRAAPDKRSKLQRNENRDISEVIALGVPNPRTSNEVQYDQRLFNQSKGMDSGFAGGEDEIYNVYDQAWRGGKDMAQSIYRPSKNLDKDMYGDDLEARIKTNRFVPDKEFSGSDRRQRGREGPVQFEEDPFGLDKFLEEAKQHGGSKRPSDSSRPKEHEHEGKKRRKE
Source text: In order to isolate a protein that binds to this HDART, a yeast two-hybrid system was used. More particularly, a yeast MATCHMAKER two-hybrid analysis kit (Clontech) was used for the isolation. The ORF full length of HDART was inserted so that it and the Gal4 DNA binding domain reading frame were aligned in the same frame with each other within pAS-1 vector (Clontech). This bait plasmid was transformed into Saccharomyces cerevisiae Y190 along with pACT2 prey plasmid whose HeLa cDNA (Clontech) had been sub-cloned. The screening for clones into which both plasmids were introduced was carried out according to the kit protocol. […]
For mapping of regions on the Skip taking part in the interaction with HDART, a series of deletion mutations where various regions on Skip (N-terminus region (codon 1-220), nuclear hormone binding region (NHR binding, codon 221-388), and tran-activation region (TA, codon 438-536) were deleted, and the interaction between HDART and mutated Skip was analyzed according to the yeast two-hybrid analysis using Gal4DBD-HDART as set forth in Example 2. The results of the analysis are shown in FIG. 5A. The sign “+” indicated at the right of FIG. 5A indicates the observation of the interaction by the filter lift analysis of β-galactosidase activity, and the number of “+” indicates the relative intensity of the interaction. […]

Skip [3] = target: T1, Skip; assay: Immunoprecipitation: N4TPR inhibition of endogenous HDART-Skip interaction in 293 cells; type: binding; set-up: expressed in transfected cells; host or cells: 293 cells; details: GFP-N4TPR expressed versus GFP alone
Source text: RAR and TR inhibit the genetic activity in the absence of a ligand in vivo (Baniahmad, A., Kohne, A. C., and Renkawitz, R. (1992) Embo J 11(3), 1015-23) and in vitro (Fondell, J. D., Roy, A. L., and Roeder, R. G. (1993) Genes Dev 7(7B), 1400-10). From this, this is called active repression. Skip interacts with NHR independently of ligand (MacDonald, P. N., Baudino, T. A., Toumaru, H., Dowd, D. R., and Zhang, C. (2001) Steroids 66 (3-5), 171-6). […] In order to clarify these possibilities, a dominant negative line of HDART is overexpressed to check the influence on the transcription ascribed to RAR. As shown in Example 2, the four TRPs (N4TPR) at the N terminus of HDART are in the Skip binding region, so that it is hypothesized that the expression of this region inhibits the interaction between the endogenous HDART and Skip, it is inhibiting the natural function of HDART and functioning as a dominant negative. In this sense, the N4TPR was used as a candidate for dominant negative in this example.
Flag-Skip and N4TPR tagged with GFP or GFP were transfected into 293 cells. […] The expression of Flag-Skip was detected using an anti-Flag antibody, the expression of GFP and GFP-N4TPR detected using an anti-GFP antibody, and the expression of the internal HDART detected using an anti-HDART antibody, respectively (FIG. 11A).

[4] = absence of a ligand, GFP-N4TPR expression vector 0.5 μg (highest expression level)
[5] = absence of ligand, GFP-N4TPR expression vector 0.3 μg

CC1=C(/C=C/C(C)=C/C=C/C(C)=C/C(=O)O)C(C)(C)CCC1 [ATRA, all-trans retinoic acid, reference compound]
number of GFP positive cells (cytotoxic effect) (MM-1-19-P cells; cells treated with the vacant vector and ATRA 2 μM): less than 30% | morphological differentiation into muscle tissue (myotubular cytomegalic cells) (MM-1-19-P cells; vacant vector-introduced cells, ATRA 2 μM, 48 hours): differentiated into muscle tissue | CAT activity (retinoic acid receptor; HepG2 cells receiving vacant vector (pcDNA), presence of ATRA 10^−8 M versus absence): increased five-fold

CCCC(=O)[O-].[Na+] [sodium butyrate]
expression repression by HDART (HDAC; 1 mA of sodium butyrate added with ligand (ATRA or dexamethasone)): The same results were also observed

CC(/C=C/C(=O)NO)=C\[C@@H](C)C(=O)c1ccc(N(C)C)cc1 [triconstatin A, tricostatin A]
expression repression by HDART (HDAC; 100 nM TSA added with ligand (ATRA or dexamethasone)): fully neutralized

B1: N4TPR: dominant negative peptide of HDART: four TPRs at the N terminus, amino acids 1 to 179 of SEQ ID NO: 2 (protein, listed as Homo sapiens)
chain: MVVMARLSRPERPDLVFEEEDLPYEEEIMRNQFSVKCWLRYIEFKQGAPKPRLNQLYERALKLLPCSYKLWYRYLKARRAQVKHRCVTDPAYEDVNNCHERAFVFMHKMPRLWLDYCQFLMDQGRVTHTRRTFDRALRALPITQHSRIWPLYLRFLRSHPLPETAVRGYRRFLKLSPES
transcription activity from the glucocorticoid responsive promoter [1, 4]: about 20 times | transcription activity from the glucocorticoid responsive promoter [1, 5]: increased up to the amount (gray column) of transcription activity induced by the presence of ligand | interaction with Skip (Skip [2]): ensures the interaction with Skip to a full extent | amount of HDART co-precipitated with Skip (Skip [3]): more reduced amount | transcription activation capability for the retinoic acid receptor compared with ATRA (retinoic acid receptor; N4TPR versus ATRA): higher transcription activation capability than ATRA | transcription activity from the RAR responsive promoter (retinoic acid receptor; [4]): about 20 times | transcription activity from the RAR responsive promoter (retinoic acid receptor; [5]): increased up to the amount (gray column) of transcription activity induced by the presence of ligand
